Test results as given in the supplement of paper PMC9233669.
Fewer inactive variants are shown than the library holds.

Key:
biotinyl-Phe-oxazolone = test: self-aminoacylation, catalytic enhancement (BFO) (fold over background); higher = more active; k-Seq, kA / k0A0; sequences stand for … in GGGAAUGGAUCCACAUCUACGAAUUC…UUCACUGCAGACUUGACGAAGCUG
Outline: (§1)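 Mutagenized RNA pools (0.43 μM; 21-nt variable region) were treated with 2–1250 μM of each biotinyl-aminoacyl-oxazolone. Conditions were 50 μL HEPES/NaCl/KCl/MgCl2/CaCl2 buffer, 5% acetonitrile, pH 6.9–7.0, room temperature, 90 minutes. Catalytic enhancement, the median kA relative to the uncatalyzed rate, was derived from streptavidin capture, qPCR and Illumina sequencing.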

biotinyl-Ile-oxazolone = test: self-aminoacylation, catalytic enhancement (BIO) (fold over background); higher = more active; k-Seq, kA / k0A0; sequences stand for … in GGGAAUGGAUCCACAUCUACGAAUUC…UUCACUGCAGACUUGACGAAGCUG
Outline: as §1

biotinyl-Met-oxazolone = test: self-aminoacylation, catalytic enhancement (BMO) (fold over background); higher = more active; k-Seq, kA / k0A0; sequences stand for … in GGGAAUGGAUCCACAUCUACGAAUUC…UUCACUGCAGACUUGACGAAGCUG
Outline: as §1

biotinyl-Val-oxazolone = test: self-aminoacylation, catalytic enhancement (BVO) (fold over background); higher = more active; k-Seq, kA / k0A0; sequences stand for … in GGGAAUGGAUCCACAUCUACGAAUUC…UUCACUGCAGACUUGACGAAGCUG
Outline: as §1

biotinyl-Leu-oxazolone = test: self-aminoacylation, catalytic enhancement (BLO) (fold over background); higher = more active; k-Seq, kA / k0A0; sequences stand for … in GGGAAUGGAUCCACAUCUACGAAUUC…UUCACUGCAGACUUGACGAAGCUG
Outline: as §1

biotinyl-Trp-oxazolone = test: self-aminoacylation, catalytic enhancement (BWO) (fold over background); higher = more active; k-Seq, kA / k0A0; sequences stand for … in GGGAAUGGAUCCACAUCUACGAAUUC…UUCACUGCAGACUUGACGAAGCUG
Outline: as §1

| Sequence | self-aminoacylation (biotinyl-Phe-oxazolone) | self-aminoacylation (biotinyl-Ile-oxazolone) | self-aminoacylation (biotinyl-Met-oxazolone) | self-aminoacylation (biotinyl-Val-oxazolone) | self-aminoacylation (biotinyl-Leu-oxazolone) | self-aminoacylation (biotinyl-Trp-oxazolone) |
| --- | --- | --- | --- | --- | --- | --- |
| AGUCACUUAGGUCAUCGGGUG [Fam2.2 aminoacylation ribozyme variant] | 46.1 | 4.65 | 5.12 | 4.36 | 6.96 | 5.93 |
| AGUCGCCUAGGUCAUCGGGUG [Fam2.2 aminoacylation ribozyme variant] | 49 | 5.29 | 6.31 | 5.42 | 7.99 | 9.01 |
| AUAAACCUAGGUCAUCGGGUG [Fam2.2 aminoacylation ribozyme variant] | 20.4 | 2.57 | 3.29 | 2.43 | 4.39 | 3.73 |
| AUAACCCUGAUCAUCGAGUGA [Fam2.1 aminoacylation ribozyme variant] | 20.9 | 2.79 | 6.16 | 3.27 | 6.46 | 8.47 |
| AUAACCCUGGUCAGCGAGUGA [Fam2.1 aminoacylation ribozyme variant] | 25.1 | 3.52 | 4.66 | 2.92 | 5.25 | 6.19 |
| AUAACCCUGGUCAUCGAGUGC [Fam2.1 aminoacylation ribozyme variant] | 4.44 | 1.33 | 1.96 | 1.42 | 2.44 | 1.89 |
| AUAACCCUGGUCAUUGAGUGA [Fam2.1 aminoacylation ribozyme variant] | 36.7 | 3.89 | 8.67 | 3.82 | 8.57 | 10.2 |
| AUAACCCUGGUCCUCGAGUGA [Fam2.1 aminoacylation ribozyme variant] | 13.1 | 1.91 | 2.77 | 1.79 | 3.52 | 3.38 |
| AUAACCCUGGUUAUCGAGUGA [Fam2.1 aminoacylation ribozyme variant] | 38.8 | 3.74 | 8.37 | 3.44 | 8.11 | 8.28 |
| AUAACCUUGGUCAUCGAGUGA [Fam2.1 aminoacylation ribozyme variant] | 27.1 | 2.94 | 5.95 | 3.3 | 6.06 | 7.25 |
| AUAACUCUGGUCAUCGAGUGA [Fam2.1 aminoacylation ribozyme variant] | 19.5 | 3.06 | 5.54 | 3.04 | 5.36 | 6.33 |
| AUACACCCAGGUCAUCGGGUG [Fam2.2 aminoacylation ribozyme variant] | 32.7 | 3.78 | 5.29 | 3.3 | 4.64 | 5.99 |
| AUACACCUAAGUCAUCGGGUG [Fam2.2 aminoacylation ribozyme variant] | 28.8 | 3.47 | 4.44 | 2.91 | 5.83 | 4.14 |
| AUACACCUAGAUCAUCGGGUG [Fam2.2 aminoacylation ribozyme variant] | 7.92 | 1.85 | 3 | 1.69 | 2.73 | 3.43 |
| AUACACCUAGGACAUCGGGUG [Fam2.2 aminoacylation ribozyme variant] | 14.1 | 2.73 | 2.98 | 2.79 | 2.82 | 5.32 |
| AUACACCUAGGUCAUCGGAUG [Fam2.2 aminoacylation ribozyme variant] | 0.387 | 1.03 | 0.978 | 0.946 | 0.994 | 0.96 |
| AUACACCUAGGUCAUCUGGUG [Fam2.2 aminoacylation ribozyme variant] | 4.68 | 1.4 | 1.56 | 1.23 | 1.68 | 1.41 |
| AUACACCUAUGUCAUCGGGUG [Fam2.2 aminoacylation ribozyme variant] | 17.3 | 2.46 | 3.42 | 2.52 | 3.86 | 3.58 |
| AUACACCUCGGUCAUCGGGUG [Fam2.2 aminoacylation ribozyme variant] | 23.3 | 2.82 | 3.08 | 3.18 | 3.14 | 3.09 |
| AUACGCCUAGGUCAUCGGGUG [Fam2.2 aminoacylation ribozyme variant] | 36 | 4.85 | 7.57 | 4.07 | 7.77 | 7.38 |
| AUACUUCAAACAAUCAGUCUG [Fam1A.1 aminoacylation ribozyme variant] | 9.06 | 0.975 | 0.823 | 1.02 | 0.979 | 4.24 |
| AUACUUCAAACAAUCGGUAUG [Fam1A.1 aminoacylation ribozyme variant] | 3.52 | 0.925 | 0.732 | 0.744 | 0.732 | 2.3 |
| AUACUUCAAAUAAUCGGUCUG [Fam1A.1 aminoacylation ribozyme variant] | 5.26 | 0.992 | 0.965 | 0.877 | 0.998 | 4.17 |
| AUACUUCAAUCAAUCGGUCUG [Fam1A.1 aminoacylation ribozyme variant] | 8.53 | 1.11 | 1.19 | 1.06 | 1.33 | 6.62 |
| AUACUUCCAACAAUCGGUCUG [Fam1A.1 aminoacylation ribozyme variant] | 0.856 | 0.782 | 0.705 | 0.727 | 0.743 | 0.721 |
| AUAGACCUAGGUCAUCGGGUG [Fam2.2 aminoacylation ribozyme variant] | 19.5 | 2.59 | 2.93 | 2.65 | 3.85 | 4.2 |

| Sequence | self-aminoacylation (biotinyl-Phe-oxazolone) | self-aminoacylation (biotinyl-Ile-oxazolone) | self-aminoacylation (biotinyl-Met-oxazolone) | self-aminoacylation (biotinyl-Val-oxazolone) | self-aminoacylation (biotinyl-Leu-oxazolone) | self-aminoacylation (biotinyl-Trp-oxazolone) |
| --- | --- | --- | --- | --- | --- | --- |
| AUAUACCUAGGUCAUCGGGUG [Fam2.2 aminoacylation ribozyme variant] | 25.9 | 2.65 | 3.97 | 2.74 | 5.38 | 4.16 |
| AUCAACCUGGUCAUCGAGUGA [Fam2.1 aminoacylation ribozyme variant] | 43.5 | 5.12 | 10 | 4.81 | 11.9 | 9.87 |
| AUCACCCUGAUCAUCGAGUGA [Fam2.1 aminoacylation ribozyme variant] | 62.3 | 4.86 | 10.8 | 4.32 | 10.2 | 10.9 |
| AUCACCCUGGUCAACGAGUGA [Fam2.1 aminoacylation ribozyme variant] | 64.3 | 4.43 | 9.31 | 4.69 | 10.6 | 10.6 |
| AUCACCCUGGUCACCGAGUGA [Fam2.1 aminoacylation ribozyme variant] | 96.6 | 6.34 | 17.5 | 5.92 | 15.4 | 13.2 |
| AUCACCCUGGUCAUCGAAUGA [Fam2.1 aminoacylation ribozyme variant] | 0.93 | 1.26 | 1.13 | 1.41 | 1.29 | 0.777 |
| AUCACCGUGGUCAUCGAGUGA [Fam2.1 aminoacylation ribozyme variant] | 52.5 | 3.99 | 7.05 | 4.01 | 6.15 | 7.75 |
| AUCACGCUGGUCAUCGAGUGA [Fam2.1 aminoacylation ribozyme variant] | 33.1 | 4.36 | 6.1 | 4.4 | 5.91 | 6.96 |
| AUCCAACUAGGUCAUCGGGUG [Fam2.2 aminoacylation ribozyme variant] | 80.9 | 5.82 | 8.53 | 4.93 | 9.99 | 8.01 |
| AUCCACCAAGGUCAUCGGGUG [Fam2.2 aminoacylation ribozyme variant] | 68.2 | 5.16 | 9.18 | 6.37 | 10.1 | 7.83 |
| AUCCACCUAGAUCAUCGGGUG [Fam2.2 aminoacylation ribozyme variant] | 23.2 | 3.37 | 3.25 | 3.26 | 4.88 | 4.45 |
| AUCCACCUAGCUCAUCGGGUG [Fam2.2 aminoacylation ribozyme variant] | 23.3 | 2.2 | 3.28 | 2.89 | 2.55 | 2.55 |
| AUCCACCUAGGGCAUCGGGUG [Fam2.2 aminoacylation ribozyme variant] | 22.1 | 3.45 | 4.46 | 4.02 | 5.15 | 4.35 |
| AUCCACCUAGGUCAACGGGUG [Fam2.2 aminoacylation ribozyme variant] | 30.3 | 2.4 | 3.17 | 3.34 | 4.15 | 4.49 |
| AUCCACCUAGGUCACCGGGUG [Fam2.2 aminoacylation ribozyme variant] | 40.4 | 4.14 | 5.52 | 4.47 | 6.1 | 6.67 |
| AUCCACCUAGGUCAUCGAGUG [Fam2.2 aminoacylation ribozyme variant] | 17.4 | 6.55 | 7.89 | 5.17 | 10.3 | 5.78 |
| AUCCACCUAGGUCAUCGGAUG [Fam2.2 aminoacylation ribozyme variant] | 0.726 | 1.4 | 1.19 | 1.65 | 1.11 | 1.04 |
| AUCCACCUAGGUCAUCGGCUG [Fam2.2 aminoacylation ribozyme variant] | 9.73 | 1.95 | 1.72 | 2.29 | 2.87 | 2.44 |
| AUCCACCUAGGUCUUCGGGUG [Fam2.2 aminoacylation ribozyme variant] | 37.1 | 4.4 | 5.09 | 6.01 | 6.56 | 6.45 |
| AUCCACCUAGGUGAUCGGGUG [Fam2.2 aminoacylation ribozyme variant] | 35.5 | 4.38 | 6.1 | 4.45 | 5.68 | 5.98 |
| AUCCACCUAGGUUAUCGGGUG [Fam2.2 aminoacylation ribozyme variant] | 32.1 | 3.44 | 4.13 | 4.45 | 4.84 | 5.62 |
| AUCCACCUAUGUCAUCGGGUG [Fam2.2 aminoacylation ribozyme variant] | 49.9 | 4.42 | 6.38 | 4.12 | 7.91 | 5.8 |
| AUCCAUCUAGGUCAUCGGGUG [Fam2.2 aminoacylation ribozyme variant] | 29.6 | 4.35 | 7.36 | 3.94 | 6.36 | 5.63 |
| AUCGCCCUGGUCAUCGAGUGA [Fam2.1 aminoacylation ribozyme variant] | 98.5 | 7.09 | 16.5 | 7.32 | 16 | 17.8 |
| AUCUACCUAGGUCAUCGGGUG [Fam2.2 aminoacylation ribozyme variant] | 51.1 | 6.54 | 10 | 6.18 | 12.1 | 8.66 |
